Experimental data reported in paper PMC3277711 (Cell, 2012).

Experiments:
[1] = biological target: chicken CENP-T-W complex (CENP-T histone fold with CENP-W) (chicken) (UniProt F1NPG5); assay: SEC
SEC = biological target: the molecule itself; assay: SEC
crystal structure = biological target: the molecule itself; assay: crystal structure

B1: chicken CENP-S-X complex (full-length CENP-S with CENP-X) (complex)
chain 1: MEAAGGEQRELLIQRLRAAVHYTTGCLCQDVAEDKGVLFSKQTVAAISEITFRQCENFARDLEMFARHAKRSTITSEDVKLLARRSNSLLKYITQKSDELASSNMEQKEKKKKKSSAAKGRKTEENETPVTESEDSNMA
chain 2: MEEREGGFRKETVERLLRLHFRDGRTRVNGDALLLMAELLKVFVREAAARAARQAQAEDLEKVDIEHVEKVLPQLLLDFVV
- stoichiometry N (CENP-S-X dimer per CENP-T-W dimer) [1]: 1
- stoichiometry N (SEC): 2 CENP-S-X heterodimers in the oligomer

B2: chicken CENP-SΔC-X complex (complex)
chain 1: MEAAGGEQRELLIQRLRAAVHYTTGCLCQDVAEDKGVLFSKQTVAAISEITFRQCENFARDLEMFARHAKRSTITSEDVKLLARRSNSLLKYITQKSDELASSNME
chain 2: B1 chain 2
- stoichiometry N (crystal structure): 2 CENP-S-X heterodimers in the oligomer
